Laboratory results published in EP4768505A1 (Shenzhen Genocury Biotech Co., Ltd, dated 2026).

Assays:
[1] = target: BSA (UniProt P02769); assay: ELISA on coated BSA control, anti-myc detection; 20ng antibody added
[2] = target: Human CD79B Protein, His Tag (MALS verified), Cat. No. #CDB-H52H3-1mg, ACRO (human) (UniProt P40259); assay: ELISA on coated antigen, anti-myc detection; 20ng antibody added
[3] = target: Human CD79A+CD79B antigen (human) (UniProt P11912); assay: as above
[4] = target: T1, Mouse CD79A+CD79B antigen (mouse) (UniProt P11911); assay: as above
T1 sequence (looked up) 1: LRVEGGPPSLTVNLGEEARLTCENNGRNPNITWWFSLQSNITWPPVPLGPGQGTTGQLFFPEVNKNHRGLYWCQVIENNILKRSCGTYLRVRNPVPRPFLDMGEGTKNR
T1 sequence (looked up) 2: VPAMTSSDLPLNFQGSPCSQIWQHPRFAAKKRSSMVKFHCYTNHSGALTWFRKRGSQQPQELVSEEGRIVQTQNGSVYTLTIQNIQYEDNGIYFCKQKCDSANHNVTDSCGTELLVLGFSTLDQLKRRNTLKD

[5] = target: Human CD79B Protein, His Tag (MALS verified), Cat. No. #CDB-H52H3-1mg, ACRO (human) (UniProt P40259); assay: ELISA on coated antigen, anti-myc detection; 20ug antibody added
[6] = target: Human CD79A+CD79B antigen (human) (UniProt P11912); assay: as above
[7] = target: T1, Mouse CD79A+CD79B antigen (mouse); assay: as above
[8] = target: T2, human CD79B antigen (a full-length protein containing signal peptide, UniProt ID: P40259) on cells (human, UniProt P40259 29-229); assay: flow cytometry on HEK-293T cells overexpressing CD79B-GFP, 0.1 mg/mL, APC-His tag antibody
T2 construct: whole, on cells; Used for the flow cytometry on transfected HEK-293T cells; F2A residues left at the C-terminus after cleavage are not described; also called CD79B-GFP molecule; HEK-293T cells overexpressing the CD79B-GFP molecule
T2 sequence (looked up): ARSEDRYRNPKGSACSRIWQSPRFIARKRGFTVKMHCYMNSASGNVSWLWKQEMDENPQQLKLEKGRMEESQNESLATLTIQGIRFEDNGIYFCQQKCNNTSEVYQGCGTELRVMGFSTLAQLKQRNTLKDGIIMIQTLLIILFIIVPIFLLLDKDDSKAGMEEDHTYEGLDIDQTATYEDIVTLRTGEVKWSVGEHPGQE

[9] = target: Human CD79B Protein, His Tag (MALS verified), Cat. No. #CDB-H52H3-1mg, ACRO (human) (UniProt P40259); assay: ELISA on coated antigen, anti-myc detection; 2ug antibody added
[10] = target: Human CD79A+CD79B antigen (human) (UniProt P11912); assay: as above
[11] = target: T1, Mouse CD79A+CD79B antigen (mouse); assay: as above
[12] = target: Human CD79B Protein, His Tag (MALS verified), Cat. No. #CDB-H52H3-1mg, ACRO (human) (UniProt P40259); assay: ELISA on coated antigen, anti-myc detection; 2ng antibody added
[13] = target: Human CD79A+CD79B antigen (human) (UniProt P11912); assay: as above
[14] = target: T1, Mouse CD79A+CD79B antigen (mouse); assay: as above
[15] = target: Human CD79B Protein, His Tag (MALS verified), Cat. No. #CDB-H52H3-1mg, ACRO (human) (UniProt P40259); assay: ELISA on coated antigen, anti-myc detection; 200µg [sic] antibody added (lowest step of the dilution series)
[16] = target: Human CD79A+CD79B antigen (human) (UniProt P11912); assay: as above
[17] = target: T1, Mouse CD79A+CD79B antigen (mouse); assay: as above
[18] = target: BSA (UniProt P02769); assay: ELISA on coated BSA control, anti-myc detection; 200ng antibody added
[19] = target: BSA (UniProt P02769); assay: ELISA on coated BSA control, anti-myc detection; 2ug antibody added
[20] = target: BSA (UniProt P02769); assay: ELISA on coated BSA control, anti-myc detection; 20ug antibody added
[21] = target: BSA (UniProt P02769); assay: ELISA on coated BSA control, anti-myc detection; 2ng antibody added
[22] = target: BSA (UniProt P02769); assay: ELISA on coated BSA control, anti-myc detection; 200µg [sic] antibody added (lowest step of the dilution series)
[23] = target: T3, Mouse CD79B antigen (mouse, UniProt P15530 26-158, limits assumed); assay: ELISA on coated antigen, anti-myc detection
T3 sequence (looked up): T1 sequence (looked up) 2

[24] = target: Human CD79B Protein, His Tag (MALS verified), Cat. No. #CDB-H52H3-1mg, ACRO (human) (UniProt P40259); assay: ELISA on coated antigen, anti-myc detection; 200ng antibody added
[25] = target: Human CD79A+CD79B antigen (human) (UniProt P11912); assay: as above
[26] = target: T1, Mouse CD79A+CD79B antigen (mouse); assay: as above

Sequence of BSA (P02769 25-607 limits assumed): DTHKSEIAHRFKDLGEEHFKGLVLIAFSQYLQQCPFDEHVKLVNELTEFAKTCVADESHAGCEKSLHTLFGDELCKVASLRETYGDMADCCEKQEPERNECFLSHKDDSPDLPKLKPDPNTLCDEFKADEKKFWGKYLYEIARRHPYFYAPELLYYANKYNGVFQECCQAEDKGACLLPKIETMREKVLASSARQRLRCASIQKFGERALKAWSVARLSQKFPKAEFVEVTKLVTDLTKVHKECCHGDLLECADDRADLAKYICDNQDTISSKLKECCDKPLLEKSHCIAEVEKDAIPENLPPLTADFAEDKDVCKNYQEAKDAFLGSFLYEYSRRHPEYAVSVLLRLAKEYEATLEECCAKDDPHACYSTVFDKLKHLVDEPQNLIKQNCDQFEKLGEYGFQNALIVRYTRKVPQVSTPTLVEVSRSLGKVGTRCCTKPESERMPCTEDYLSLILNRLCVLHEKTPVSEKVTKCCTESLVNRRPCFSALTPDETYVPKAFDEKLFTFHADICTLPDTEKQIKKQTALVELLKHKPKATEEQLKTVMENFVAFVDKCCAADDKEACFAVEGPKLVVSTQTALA

B1: anti-CD79B single-domain antibody JYB11 (VHH)
VHH: DVQLQESGGGLVQPGGSLSLSCAASMSSPSLWVRAWHRQAPGKQRELVAAINSDGQTMYADSVKGRFTISRDNAKTLVSLQMDSLKPEDTAVYYCNVVTPRGQQYWGQGTQVTVSS
notes: Alpaca VHH from a phage library; ELISA detected with an anti-myc antibody; a myc tag is not described; not shown: His-tag protein at the C-terminal end
OD450 nm [1]: 0.0471 OD450 | OD450 nm [2]: 0.0947 OD450 | OD450 nm [3]: 0.0778 OD450 | OD450 nm [4]: 0.0575 OD450 | OD450 nm [5]: 0.379 OD450 | OD450 nm [6]: 0.612 OD450 | OD450 nm [7]: 0.0981 OD450 | binding result [8]: binds | OD450 nm [9]: 0.303 OD450 | OD450 nm [10]: 0.519 OD450 | OD450 nm [11]: 0.0651 OD450 | OD450 nm [12]: 0.0528 OD450 | OD450 nm [13]: 0.0567 OD450 | OD450 nm [14]: 0.0582 OD450 | OD450 nm [15]: 0.0516 OD450 | OD450 nm [16]: 0.0556 OD450 | OD450 nm [17]: 0.0586 OD450 | OD450 nm [18]: 0.048 OD450 | OD450 nm [19]: 0.0483 OD450 | OD450 nm [20]: 0.0489 OD450 | OD450 nm [21]: 0.0485 OD450 | OD450 nm [22]: 0.0469 OD450 | binding result [23]: no binding (tested: 20ug) | OD450 nm [24]: 0.177 OD450 | OD450 nm [25]: 0.271 OD450 | OD450 nm [26]: 0.0589 OD450
